# Test system: MS2 coat protein
# Experiment: apparent KD of MS2 coat protein; designed switch direction (-1 OFF switch, 1 ON switch): 1; higher = weaker reporter binding
# Outline: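 The reported apparent KD is a per-design median over clusters, from curve fits of normalised cluster fluorescence. Protein titrations used SNAP-549-labelled MS2 coat protein, doubled from 0.7 or 1.5 nM to 3 µM, in Tris-HCl pH 7.5 buffer with KCl, MgCl2, BSA, DTT, tRNA and Tween-20, with no input, 200 uM small-molecule ligand, or an oligonucleotide input. The RNA switches were transcribed on Illumina chips by stalled E. coli RNA polymerase.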
# [1] = Eterna round: R95, input ligand: FMN 200 uM
# [2] = Eterna round: R95, input ligand: microRNA oligo, concentration not stated
# [3] = Eterna round: R95, input ligand: none
# [4] = input ligand: microRNA oligo, concentration not stated
Sequence,apparent KD of MS2 coat protein [1],apparent KD of MS2 coat protein [2],apparent KD of MS2 coat protein [3],apparent KD of MS2 coat protein (input ligand: FMN 200 uM),apparent KD of MS2 coat protein [4],apparent KD of MS2 coat protein (input ligand: none)
GUUAUACAUGAGGAUCACCCAUGUCAAUGUAGUCGAGGAUAUGGGUUGCUAUGAGGCGUACUAGAAGGCGAGGAGU [JL-ss1-3.17 ViennaUCT mod] (puzzle: Same State 1),297 nM,98.8 nM,265 nM,–,–,–
"GUUAUUUAUGCAGGAUAUGAUUAACAUGAGGAUCACCCAUGUGGUGUUGUGAGUAAGGAGAGUGAUCAGAAGGGCAUUUUUUUU [JMF's solution 77] (Eterna round: R96, puzzle: Same State NG 2)",–,–,–,626 nM,298 nM,565 nM
"GUUCGGAAUCGAGCUGACAUGAGGAUCACCCAUGUUAGUGGGAAGGAUAUGGUACAGAAACUGUACCAGAAGGUCUUACUGUCU (Eterna round: R96, puzzle: Same State NG 3)",–,–,–,47 nM,66.7 nM,67.4 nM
"GUUGAGAAAUGAGGAUAUGCAUGGAAGACACAUGAGGAUCACCCAUGUGGGAGGGAAACCAGGAGGUAGAAGGCAUUGGGAAAC [AK SSNG2-V2-24] (Eterna round: R96, puzzle: Same State NG 2)",–,–,–,35.7 nM,35.5 nM,55.1 nM
"GUUUUUAGUGCAGGAUAUGAUCAACAUGAGGAUCACCCAUGUGGCGUUGUGAGUAGGGAGAGAGAUCAGAAGGGCGUCUCCGCG [SS-NG2-LRO13] (Eterna round: R96, puzzle: Same State NG 2)",–,–,–,51.5 nM,37 nM,57.3 nM
UAAAAACAUGAGGAUCACCCAUGUCAAAAGACAUGAGGAUAUGUACAGACUUCGGUCUGUACAGAAGGCAUGAAAA [salish99_ss1_r3_094] (puzzle: Same State 1),33.3 nM,503 nM,362 nM,–,–,–
UAAACUUCUUUUAGUGUGUUGCGAGUGAAACAUGAGGAUCACCCAUGUAAAGGAUUGUGGUAUUUUGUUCGUCUUAA [JR_SHM208A_Sub075] (puzzle: Sensor for hsa-mir-208a),75.2 nM,41.4 nM,98.8 nM,–,–,–
UAAGAACAUGAGGAUCACCCAUGUGGAAAGAACACAGGAUAUCAUAGAAGGACGCGACUAUGAGAAGGGUGACACG [Lequat] (puzzle: Same State 1),390 nM,104 nM,218 nM,–,–,–
"UAAUAAAAGGAUAUACAUGAGGAUCACCCAUGUCCGUCUGCCAAGGAUAUCUAGGAUCAAGCAGCAGAGAAGGUGGCACGCCAC [Eternabot solution 35] (Eterna round: R96, puzzle: Same State NG 3)",–,–,–,22.3 nM,17.2 nM,18.3 nM
"UAGAUUCACGUAGGAUAUCGACCUACAUGAGGAUCACCCAUGUUUUUGAAUAGAUUUUUUUGUUACGAGAAGGACGUUAUGUAU [JR_SSNG2_Sub064] (Eterna round: R96, puzzle: Same State NG 2)",–,–,–,133 nM,177 nM,268 nM
"UAGCAGUGCGGGUAGGAUAUGUAGGGUGGUACAUGAGGAUCACCCAUGUAUCCACCCUUCGACCGGCAGAAGGGCCUGUCACUGC [Edor] (Eterna round: R96, puzzle: Same State 2)",–,–,–,–,13.2 nM,–
"UAGUGAUUGCAAGGAUAUGCUUAUGUUUAAUUUUUUUUAAUAUCUAACAUGAGGAUCACCCAUGUGCAGAAGGUGCUUGAUUUG [JR_SSNG2_Sub075] (Eterna round: R96, puzzle: Same State NG 2)",–,–,–,–,54.2 nM,–
UAUAAACAUGAGGAUCACCCAUGUAAUAAUAUGGGAGGAUAUCAGAAUGUAUUUAUGUAAUGAGAAGGCCUAAUAU [Mat - Same State 1 - Mod of Eli - D69] (puzzle: Same State 1),50.9 nM,122 nM,372 nM,–,–,–
"UAUCCAUAGAUAGGAUAUCAGUAUACAUGAGGAUCACCCAUGUUAUAUUUGGUUUUAAUUUAGUCUGAGAAGGAUCUUGAUGAA [SameState NG2 #2] (Eterna round: R96, puzzle: Same State NG 2)",–,–,–,14.7 nM,11.9 nM,15.3 nM
"UAUCUCAUGUAAGGAUAUGCAGCCGUUUCGGCUGCAGAAGGUACUAUAAUACAUGAGGAUCACCCAUGUCUCUCGCAUUGCGAG [JL SSNG1 1.49] (Eterna round: R96, puzzle: Same State NG 1)",–,–,–,186 nM,150 nM,293 nM
"UAUUAGAUCCGAGGAUAUCCUUAUUAGAAACAUGAGGAUCACCCAUGUAAAGGGAAUUAUUUGUAGGAGAAGGCGGAUUUAGUU [JR_SSNG2_Sub056] (Eterna round: R96, puzzle: Same State NG 2)",–,–,–,–,41.7 nM,–
"UAUUAGAUCCGAGGAUAUCCUUUUUUCUUACAUGAGGAUCACCCAUGUAAAGGGAUUGAGUUGUAGGAGAAGGCGGAUUUAGUU [JR_SSNG2_Sub058] (Eterna round: R96, puzzle: Same State NG 2)",–,–,–,–,24.1 nM,–
"UCGUCCUCGUGCUAGGAUAUCCAUCGUAAAACAUGAGGAUCACCCAUGUAGAAAUGCGCCUACGAGGAGAAGGAGCGAUGUGGAU [Velemageer] (Eterna round: R96, puzzle: Same State 2)",–,–,–,–,14 nM,–
UCUAGACAUGAGGAUCACCCAUGUCGAUAUGGCGCAGGAUAUCGGUACUCAUAGAGUACGCGAGAAGGGUGACUUC [Same State 1 - Mod of Vinnie Gere v.2] (puzzle: Same State 1),–,173 nM,–,–,–,–
UCUUGGUUUUUGCUCGUUUUUUGUGUUGAACAUGAGGAUCACCCAUGUAUUAUACGGUCCGGUUUAGUAGUGGUCCA [JMF 78] (puzzle: Sensor for hsa-mir-208a),86.1 nM,83 nM,113 nM,–,–,–
UCUUGGUUUUUGCUCGUUUUUUGUGUUGAACAUGAGGAUCACCCAUGUAUUGUACAGUCCAAUUUAAUAAUGGUCCA [JMF 4] (puzzle: Sensor for hsa-mir-208a),34.2 nM,27.9 nM,41.6 nM,–,–,–
UCUUGGUUUUUGCUCGUUUUUUGUGUUGAACAUGAGGAUCACCCAUGUAUUGUACGGUCCAAUUUAAUAGUGGUCCG [JMF 24] (puzzle: Sensor for hsa-mir-208a),25.5 nM,15.3 nM,28 nM,–,–,–
UCUUGGUUUUUGCUCGUUUUUUGUGUUGAACAUGAGGAUCACCCAUGUAUUGUACGGUCCGAUUUAAUAGUGGUCCG [JMF 19] (puzzle: Sensor for hsa-mir-208a),24.4 nM,14.8 nM,27 nM,–,–,–
UCUUGGUUUUUGCUCGUUUUUUGUGUUGAACAUGAGGAUCACCCAUGUAUUGUACGGUCCGGUUUGAUAGUGGUCCG [JMF 15] (puzzle: Sensor for hsa-mir-208a),26.3 nM,16.2 nM,31.3 nM,–,–,–
"UGAACCGUCACAGGAUAUCAUGCGAAAAUUGCGUGAGAAGGGUGGAUGUUGUGUUCAAAGAUGUACAUGAGGAUCACCCAUGUU [SameState NG1 #47] (Eterna round: R96, puzzle: Same State NG 1)",–,–,–,61 nM,85.7 nM,170 nM
